# Measured values reported in article PMC8415103 (Biochemistry, 2021).
# Assays:
# [1] = biological target: NikS (Streptomyces tendae, UniProt Q9F2E5); assay: steady-state amide ligation kinetics, substrate inhibition model; format: biochemical; conditions: HPHT as co-substrate
# [2] = substrate: N[C@H](C(=O)O)[C@H]1O[C@@H](n2ccc(=O)[nH]c2=O)[C@H](OP(=O)(O)O)[C@@H]1O; assay: as above; format: biochemical, Streptomyces tendae; conditions: HPHT as co-substrate
# [3] = substrate: N[C@H](C(=O)O)[C@H]1O[C@@H](n2ccc(=O)[nH]c2=O)[C@H](OP(=O)(O)O)[C@@H]1O; assay: steady-state amide ligation kinetics, Michaelis-Menten fit; format: biochemical, Streptomyces asoensis; conditions: 200 μM CPOAA, 1 mM ATP, 3 mM MgCl2
# [4] = substrate: N[C@H](C(=O)O)[C@H]1O[C@@H](n2cc(C(=O)O)c(=O)[nH]c2=O)[C@H](O)[C@@H]1O; assay: as above; format: biochemical, Streptomyces asoensis; conditions: 200 μM CPOAA, 1 mM ATP, 3 mM MgCl2
# [5] = substrate: N[C@H](C(=O)O)[C@H]1O[C@@H](n2ccc(=O)[nH]c2=O)[C@H](O)[C@@H]1O; assay: as above; format: biochemical, Streptomyces asoensis; conditions: 200 μM CPOAA, 1 mM ATP, 3 mM MgCl2
molecule,measurement,setting,value
"N[C@H](C(=O)O)[C@H]1O[C@@H](n2ccc(=O)[nH]c2=O)[C@H](OP(=O)(O)O)[C@@H]1O [compound 6, AHAP]",Ki,[1],111 ± 38 µM
NikS (Streptomyces tendae) (protein) MKAEQGPFLLLNTKKIVSRLHEWFPDAARELVVVTTKADIPSADISAYARRFLHLEVVPNLWELSDDELLALARRFGVRRILSLGEREVLRAARIRAELGLPGQSLASATAYRDKHVMKSTLAAAGIDVAPMRKFRTNDDLAEFAWKVGFPVVVKELDSGASNGTVVLMDEEDLRALPERATAAPRLAEAWVEGDFYHVNGLMKDGEVVLAVPSRNLYSDWFSVAYDAPTMTGMMPDDHPLSERLRSTARQVVAALPAVPDLCAFHLELFHTADDRVVVCEIACRAGAALVSDVHEAVLGVNFHGASLLGQAGRGDQVEIRPTGERLGFVWFPPAKGVLRALPDTCPLPGTVSYRPCGDIGRRYGSSSGLGRPIAEMVFRLTEPDTGAELRRIEEWWDDNVVWEHRTNAVPDRWKTPRRKPADA,Km,[2],10.9 ± 2.6 µM
same,kcat,[2],0.0283 ± 0.005 s⁻¹
PolG (Streptomyces asoensis) (protein) MFLLLNNKPILHRVPEWFPQARQELIVVSTRSGLGTSAFPELARGFRHLHLVSSLDRPGLEEDLVALCRRFGVRRVLSTGEREVLPAATLRERLGLPGQDVACATAYRDKYTMKSLLTEAGIPVAPMRRLASPADLDAFADEAGFPLVVKSRLSGGSNGTRVLWDGDALTAFTDDWAAGRTAAPDLAEAWVEGDFYHINGLMRDGRILLAQPSYQPYSDWFSVAYDAPGMSGMMPDEDPMSARLRDTAAKVVATMPAVPGVCAFQVEFFHTPDDRLVVCETACRAGGSRMVETHEDTLGVHLHGASLLGQAGRSDQVTIRPTGRRQGYARFPSAHGVLRHLPRRSPLPQTLLYTATGEEGRHYDPATSLGSSVAEIVVSLTGPDTAAELLAVETWWESAVVWQDRRNPVPDRFKSVHRVRPDTRERALHV,Km,[3],9.1 ± 0.4 µM
same,kcat,[3],0.0583 ± 0.0033 s⁻¹
same,Km,[4],334 ± 68 µM
same,kcat,[4],0.0233 ± 0.0067 s⁻¹
same,Km,[5],931 ± 122 µM
same,kcat,[5],0.0112 ± 0.00067 s⁻¹
